What follows are substances tested against DYNC2H1 [human (endogenous in RPE1)] (assay: GFP-trap purification, TMT-labelling and mass spectrometry). Details: RPE1 WDR34 KO cell lines expressing GFP proteins, serum-starved for 24 h; read off a plot.
“GFP–WDR34-WT mutant R182W [human] / DYNC2H1 [human (endogenous in RPE1)] chain 1 R182W” gave a ratio to parent of 2. Substance “GFP–WDR34-WT mutant P390L [human] / DYNC2H1 [human (endogenous in RPE1)] chain 1 P390L” has a ratio to parent of 1.6. “GFP–WDR34-WT mutant T354M [human] / DYNC2H1 [human (endogenous in RPE1)] chain 1 T354M” gave a ratio to parent of 0.22. “GFP–WDR34-WT mutant A341V [human] / DYNC2H1 [human (endogenous in RPE1)] chain 1 A341V” was tested, and the ratio to parent was 2. In the case of “GFP–WDR34-WT mutant G393S [human] / DYNC2H1 [human (endogenous in RPE1)] chain 1 G393S”, the ratio to parent is reported as 0.3. For “GFP–WDR34-WT mutant R447Q [human] / DYNC2H1 [human (endogenous in RPE1)] chain 1 R447Q”, the ratio to parent was 0.62. “GFP–WDR34-WT mutant A22V [human] / DYNC2H1 [human (endogenous in RPE1)] chain 1 A22V” showed a ratio to parent of 0.93. In the case of “GFP–WDR34-WT mutant R447W [human] / DYNC2H1 [human (endogenous in RPE1)] chain 1 R447W”, the ratio to parent is reported as 0.93. Substance “GFP–WDR34-WT mutant K436R [human] / DYNC2H1 [human (endogenous in RPE1)] chain 1 K436R” has a ratio to parent of 2. Work on “GFP–WDR34-WT mutant C148F [human] / DYNC2H1 [human (endogenous in RPE1)] chain 1 C148F” yielded a ratio to parent of 0.55. For “GFP–WDR34-WT mutant S410I [human] / DYNC2H1 [human (endogenous in RPE1)] chain 1 S410I”, the ratio to parent was 0.45. “GFP–WDR34-WT mutant R206C [human] / DYNC2H1 [human (endogenous in RPE1)] chain 1 R206C” showed a ratio to parent of 2.7.

Reference: paper PMC9687537
